Results taken from PMC9071465.

Assays:
[1] = molecular target: At-HIGLE (HYL-1 Interacting GIY-YIG Like Endonuclease) from Arabidopsis thaliana, full length (Arabidopsis thaliana); experiment: SEC; Sephacryl 16/60 S-200, 20 mM Tris-HCl (pH 8.5), 5% glycerol, 5 mM beta-mercaptoethanol, 0.5 M NaCl; calibrated with gel filtration markers; oligomeric state from a standard curve
[2] = molecular target: At-HIGLE^184-368 (C-terminal region of At-HIGLE) (Arabidopsis thaliana); experiment: SEC; Sephacryl 16/60 S-100, 20 mM Tris-HCl (pH 8.5), 5% glycerol, 5 mM beta-mercaptoethanol, 0.5 M NaCl; calibrated with gel filtration markers; oligomeric state from a standard curve

stoichiometry N [1] | stoichiometry N [2] | Substance
2 | – | At-HIGLE (HYL-1 Interacting GIY-YIG Like Endonuclease) from Arabidopsis thaliana, full length (enzyme)
– | 2 | At-HIGLE^184-368 (C-terminal region of At-HIGLE) (domain or fragment)
